In patent US20180305414A1:
Where a chain is given by its changes, count along the chain named. Each block holds one molecule with its values, some of them ahead of it.

Legend:
[1] = target: Fab prepared by papain treatment of human IgG (human); test: binding capacity; Capto L resin, 20 mg/mL human Fab, acid elution, A280
[2] = target: human IgG (available from the Chemo-Sero-Therapeutic Research Institute) (human); test: binding capacity; Capto L resin, human IgG, acid elution, A280
[3] = target: human IgG (available from the Chemo-Sero-Therapeutic Research Institute) (human); test: binding capacity; binder immobilised on agarose gel, human IgG, acid elution, A280
[4] = target: human IgG (available from the Chemo-Sero-Therapeutic Research Institute) (human); test: binding capacity; binder immobilised on agarose gel, 40 mg/mL human IgG, acid elution, A280
[5] = target: human IgG (available from the Chemo-Sero-Therapeutic Research Institute) (human); test: binding capacity; binder immobilised on agarose gel, human IgG
[6] = target: Fab prepared by papain treatment of human IgG (human); test: binding capacity; binder immobilised on agarose gel, 20 mg/mL human Fab, acid elution, A280
[7] = target: Fab prepared by papain treatment of human IgG (human); test: binding capacity against Capto L
[8] = target: human IgG (available from the Chemo-Sero-Therapeutic Research Institute) (human); test: binding capacity against Capto L

B1: chimeric protein PL-014 containing immunoglobulin-binding domain 4 of Protein L (designed binder)
chain: MAQHDEAGLALETPEEPKEEVTIKVNLIFADGKTQTAEFKGTFEEATAEAYRYADLLAKVNGEYTADLEDGGYTINIKFAGALPSKSKKILKEAKKLNKAQAPKKKK
IgG Binding Capacity [3]: 57 mg/mL gel | IgG Binding Capacity [4]: 57.4 mg/mL gel

B4: modified product PL-038 of immunoglobulin-binding domain 4 (designed binder)
chain: B1 chain with T13R, K18R, K24R, K33R, K40R, K59R, K78R
IgG Binding Capacity [3]: 63.6 mg/mL gel | increase of binding capacity against PL-014 [5]: 11%

B7: chimeric protein PL-022 containing immunoglobulin-binding domain 2 of Protein L (designed binder)
chain: B1 chain with T13K, E49K, R52A, V60E, Y73N
IgG Binding Capacity [4]: 53.3 mg/mL gel

B10: modified product PL-046 of immunoglobulin-binding domain 4 (designed binder)
chain: B1 chain with T13K, K18R, K33R
IgG Binding Capacity [3]: 59.7 mg/mL gel

B12: modified product PL-053 of immunoglobulin-binding domain 4 (designed binder)
chain: B1 chain with T13K, K18R, K24R, K33E
IgG Binding Capacity [3]: 55.9 mg/mL gel

B13: modified product PL-051 of immunoglobulin-binding domain 4 (designed binder)
chain: B1 chain with T13K, K18R, K24R, K33L
IgG Binding Capacity [3]: 57.3 mg/mL gel

B14: modified product PL-058 of immunoglobulin-binding domain 4 (designed binder)
chain: B1 chain with T13K, K18R, K33R, K40R
IgG Binding Capacity [3]: 58.6 mg/mL gel

B15: modified product PL-059 of immunoglobulin-binding domain 4 (designed binder)
chain: B1 chain with T13K, K18R, K40R
IgG Binding Capacity [3]: 56.1 mg/mL gel

B17: modified product PL-048 of immunoglobulin-binding domain 4 (designed binder)
chain: B1 chain with T13K, K24R, K33R, K40R
IgG Binding Capacity [3]: 57.9 mg/mL gel

B18: modified product PL-050 of immunoglobulin-binding domain 4 (designed binder)
chain: B1 chain with T13K, K18R, K24R, K33T
IgG Binding Capacity [3]: 59 mg/mL gel

B19: modified product PL-052 of immunoglobulin-binding domain 4 (designed binder)
chain: B1 chain with T13K, K18R, K24R, K33H
IgG Binding Capacity [3]: 58.5 mg/mL gel

B21: modified product PL-027 of immunoglobulin-binding domain 4 (designed binder)
chain: B1 chain with K18R, K24R, K33R
IgG Binding Capacity [3]: 58.6 mg/mL gel

B22: modified product PL-026 of immunoglobulin-binding domain 4 (designed binder)
chain: B1 chain with T13K, K18R, K24R
IgG Binding Capacity [3]: 57.8 mg/mL gel

B24: modified product PL-024 of immunoglobulin-binding domain 4 (designed binder)
chain: B1 chain with K18R, K24R, K33R, K40R, K59R, K78R
IgG Binding Capacity [3]: 63.4 mg/mL gel | increase of binding capacity against PL-014 [5]: 11%

B25: modified product PL-044 of immunoglobulin-binding domain 4 (designed binder)
chain: B1 chain with T13K, K33R
IgG Binding Capacity [3]: 58.9 mg/mL gel

B26: modified product PL-056 of immunoglobulin-binding domain 4 (designed binder)
chain: B1 chain with T13K, K18R, K24R, K33A
IgG Binding Capacity [3]: 61.6 mg/mL gel

B27: modified product PL-043 of immunoglobulin-binding domain 4 (designed binder)
chain: B1 chain with T13R
IgG Binding Capacity [3]: 59.3 mg/mL gel

B28: modified product PL-035 of immunoglobulin-binding domain 4 (designed binder)
chain: B1 chain with K18R, K24R
IgG Binding Capacity [3]: 56.9 mg/mL gel

B29: chimeric protein PL-023 containing immunoglobulin-binding domain 3 of Protein L (designed binder)
chain: B1 chain with T34I, E49K, R52A, D55N, V60E, Y73N
IgG Binding Capacity [3]: 52.2 mg/mL gel | IgG Binding Capacity [4]: 52.2 mg/mL gel

B30: tetrameric multidomain polypeptide PL-424 (four linked modified domains of PL-024) (designed binder)
chain: AQHDEAGLALETPEEPREEVTIRVNLIFADGRTQTAEFRGTFEEATAEAYRYADLLARVNGEYTADLEDGGYTINIRFAGALETPEEPREEVTIRVNLIFADGRTQTAEFRGTFEEATAEAYRYADLLARVNGEYTADLEDGGYTINIRFAGALETPEEPREEVTIRVNLIFADGRTQTAEFRGTFEEATAEAYRYADLLARVNGEYTADLEDGGYTINIRFAGALETPEEPREEVTIRVNLIFADGRTQTAEFRGTFEEATAEAYRYADLLARVNGEYTADLEDGGYTINIRFAGALPSKSKKILKEAKKLNKAQAPKKKK
IgG Binding Capacity [3]: 91.6 mg/mL gel | Fab Binding Capacity [6]: 72.4 mg/mL gel | human IgG binding capacity relative to PL-024 [5]: 144% | amount of bound Fab fragment relative to Capto L [7]: 2.4 times | amount of bound IgG relative to Capto L [8]: 2.2 times

B31: hexameric multidomain polypeptide PL-624 (six linked modified domains of PL-024) (designed binder)
chain: AQHDEAGLALETPEEPREEVTIRVNLIFADGRTQTAEFRGTFEEATAEAYRYADLLARVNGEYTADLEDGGYTINIRFAGALETPEEPREEVTIRVNLIFADGRTQTAEFRGTFEEATAEAYRYADLLARVNGEYTADLEDGGYTINIRFAGALETPEEPREEVTIRVNLIFADGRTQTAEFRGTFEEATAEAYRYADLLARVNGEYTADLEDGGYTINIRFAGALETPEEPREEVTIRVNLIFADGRTQTAEFRGTFEEATAEAYRYADLLARVNGEYTADLEDGGYTINIRFAGALETPEEPREEVTIRVNLIFADGRTQTAEFRGTFEEATAEAYRYADLLARVNGEYTADLEDGGYTINIRFAGALETPEEPREEVTIRVNLIFADGRTQTAEFRGTFEEATAEAYRYADLLARVNGEYTADLEDGGYTINIRFAGALPSKSKKILKEAKKLNKAQAPKKKK
IgG Binding Capacity [3]: 95.8 mg/mL gel | Fab Binding Capacity [6]: 75.9 mg/mL gel | human IgG binding capacity relative to PL-024 [5]: 151% | amount of bound Fab fragment relative to Capto L [7]: 2.4 times | amount of bound IgG relative to Capto L [8]: 2.2 times

B32: chimeric protein PL-021 containing immunoglobulin-binding domain 1 of Protein L (designed binder)
chain: MAQHDEAGLALETPEPEEEVTIKANLIFADGSTQNAEFKGTFAKAVSDAYAYADALKKDNGEYTVDVADKGLTLNIKFAGALPSKSKKILKEAKKLNKAQAPKKKK
IgG Binding Capacity [4]: 45.3 mg/mL gel

Further lines, results first:

Fab Binding Capacity [1]: 30.9 mg/mL gel | IgG Binding Capacity [2]: 43.6 mg/mL gel
Molecule: Capto L (GE Healthcare KK) having a tetramer (Protein L) with the native sequence immobilized thereon

IgG Binding Capacity [3]: 57.6 mg/mL gel
B2: modified product PL-060 of immunoglobulin-binding domain 4 (designed binder)
chain: B1 chain with T13K, K18T, K24R, K33R

IgG Binding Capacity [3]: 57.3 mg/mL gel
B3: modified product PL-055 of immunoglobulin-binding domain 4 (designed binder)
chain: B1 chain with T13K, K18R, K24R, K33F

IgG Binding Capacity [3]: 60.6 mg/mL gel
B5: modified product PL-045 of immunoglobulin-binding domain 4 (designed binder)
chain: B1 chain with T13R, K33R

IgG Binding Capacity [3]: 59.8 mg/mL gel
B6: modified product PL-061 of immunoglobulin-binding domain 3 (designed binder)
chain: B1 chain with K18R, K24R, K33R, T34I, K40R, E49K, R52A, D55N, V60E, Y73N

IgG Binding Capacity [3]: 59.7 mg/mL gel
B8: modified product PL-049 of immunoglobulin-binding domain 4 (designed binder)
chain: B1 chain with T13K, K18R, K24R, K33R, K40R

IgG Binding Capacity [3]: 59.2 mg/mL gel
B9: modified product PL-047 of immunoglobulin-binding domain 4 (designed binder)
chain: B1 chain with T13K, K24R, K33R

IgG Binding Capacity [3]: 58.4 mg/mL gel
B11: modified product PL-054 of immunoglobulin-binding domain 4 (designed binder)
chain: B1 chain with T13K, K18R, K24R, K33Q

IgG Binding Capacity [3]: 60.1 mg/mL gel | increase of binding capacity against PL-014 [5]: 5%
B16: modified product PL-028 of immunoglobulin-binding domain 4 (designed binder)
chain: B1 chain with T13K, K40R, K59R, K78R

IgG Binding Capacity [3]: 59.1 mg/mL gel
B20: modified product PL-036 of immunoglobulin-binding domain 4 (designed binder)
chain: B1 chain with T13K, K18R, K24R, K33R

IgG Binding Capacity [3]: 55.6 mg/mL gel
B23: modified product PL-057 of immunoglobulin-binding domain 4 (designed binder)
chain: B1 chain with T13K, K18R, K24R, K40R
